The target in data set [1] is wild type CD70-His-Avi (human) (UniProt P32970). The experiment in a line: SPR.
For data set [2] the target is unchanged. The experiment in a line: SPR. The source holds these as a separate data set.
Data set [3] has the same target. The data set is described as follows: SPR. This is another data set of the same source.
The target in data set [4] is human CD70 S137K, His-Avi tagged, purified (human) (UniProt P32970). The experiment in a line: SPR.
For data set [5], the target named is CD70-A80F (human) (UniProt P32970). The data set is described as follows: SPR.
For data set [6], the target named is CD70-A80R (human) (UniProt P32970). The experiment in a line: SPR.
Data set [7] has as its target CD70-H148A (human) (UniProt P32970). The experiment in a line: SPR.
Data set [8] concerns the target CD70-H148D (human) (UniProt P32970). The data set is described as follows: SPR.
Data set [9] addresses CD70-H148E (human) (UniProt P32970). The data set is described as follows: SPR.
Data set [10] deals with CD70-Q61A (human) (UniProt P32970). The data set is described as follows: SPR.
The target in data set [11] is CD70-S137A (human) (UniProt P32970). The experiment in a line: SPR.
Data set [12] concerns the target CD70-S137E (human) (UniProt P32970). The data set is described as follows: SPR.
Data set [13] concerns the target CD70-S137K (human) (UniProt P32970). The data set is described as follows: SPR.
Data set [14] deals with CD70-S146A (human) (UniProt P32970). The experiment in a line: SPR.
The target of data set [15] is T1, wild type CD70-His-Avi (human, UniProt P32970 45-193).
T1 sequence (looked up): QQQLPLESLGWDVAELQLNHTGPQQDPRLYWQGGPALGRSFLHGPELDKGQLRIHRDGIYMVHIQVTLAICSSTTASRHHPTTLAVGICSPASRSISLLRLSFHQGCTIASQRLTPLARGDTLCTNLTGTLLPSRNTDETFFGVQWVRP
The data set is described as follows: SPR.

Data set [16] deals with the molecule itself. The experiment in a line: SEC.

Changes are numbered by the printed parent chain. Names and notes keep the numbering of the source. Read-outs that look alike come from different tables or passages of the source.

These results are taken from publication PMC8484739 (The Journal of Biological Chemistry, 2021).

Take “deglycosylated human CD27 (from UniProt P26842 23-127) (receptor)”: in [1], the Kd was 118 nM and the half-life (calculated from kd) is 1.9 min.

“human CD27 wild-type (glycosylated) (from UniProt P26842 23-127) (receptor)”: the Kd in data set [2] worked out at 135 nM; in data set [3] it was 121 nM; in data set [1], 134 nM. Moreover, the half-life (calculated from kd) in [1] was 2.67 min.

B1: human CD27 wild type, glycosylated (residues A23-S127) (receptor)
chain: APKSCPERHYWAQGKLCCQMCEPGTFLVKDCDQHRKAAQCDPCIPGVSFSPDHHTRPHCESCRHCNSGLLVRNCTITANAECACRNGWQCRDKECTECDPLPNPS
modifications: N-linked glycan (glycosylated form)
B1: the Kd in [4] was found to be 113 nM.

B2: human CD27 wild-type (glycosylated) (receptor)
chain: B1 chain
modifications: N-linked glycans kept (glycosylated; no Endo H digestion)
As to B2, the Kd in data set [5] was found to be 643 nM; in data set [6], 163 nM; in data set [7] it was 236 nM; in [8], 477 nM; in [9], 380 nM; in [10], 205 nM. The Kd in [11] amounted to 156 nM; in data set [12], 526 nM; in data set [13] it was 135 nM; in data set [14], 116 nM.

B3: CD27-N95A (receptor, human, UniProt P26842 23-127, looked up)
chain: B1 chain with N73A
Take B3: in [15], the affinity, expressed as Kd, was 100 nM; the dissociation rate constant (koff) turned out to be 0.00726 s⁻¹; the kon was determined as 72500 M⁻¹ s⁻¹.

B4: CD27-S83A (receptor, human, UniProt P26842 23-127, looked up)
chain: B1 chain with S61A
modifications: glycosylated
For B4, in [15], the Kd stood at 254 nM, the off-rate (koff) is 0.00854 s⁻¹ and the kon turned out to be 33600 M⁻¹ s⁻¹.

B5: CD27-K115A (receptor, human, UniProt P26842 23-127, looked up)
chain: B1 chain with K93A
modifications: glycosylated
Turning to B5, in [15], the dissociation constant (Kd) stood at 102 nM, the koff turned out to be 0.00351 s⁻¹ and the kon stood at 34500 M⁻¹ s⁻¹.

B6: CD27-R30A (receptor, human, UniProt P26842 23-127, looked up)
chain: B1 chain with R8A
modifications: glycosylated
In the case of B6, in [15], the dissociation constant (Kd) was 351 nM, the koff worked out at 0.0047 s⁻¹ and the kon stood at 13400 M⁻¹ s⁻¹.

B7: glycosylated human CD70 (crystallisation construct) (ligand, UniProt P32970 45-193, looked up)
chain: T1 sequence (looked up)
modifications: N-linked glycans on N63 and N170; core fucosylation at N63
On to B7, for which, in data set [16], the “stoichiometry N” value stood at 3.
